Reference: the supplement of paper PMC9732359
± gives the uncertainty stated by the source.

Assay: protein stability index of a GFP-peptide fusion (yeast GPS) (PSI 1-4); higher = more stable; sorted into four equal gates, so the index is relative within each strain
Outline: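 Each library plasmid carries Cherry plus GFP with a tiled 17-residue yeast protein peptide fused downstream, and the pooled library was carried in yeast. Mid-log cultures in leucine-free medium were sorted into four equal gates by GFP/Cherry ratio. Reads from Illumina sequencing of PCR-amplified plasmids from each gate were assigned to strains by barcodes. Per peptide, the protein stability index was computed as the summed products of gate read frequency and gate number.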

| Sequence | protein stability index (doa10∆) | protein stability index (pdr5∆) | protein stability index (san1∆) | protein stability index (ubr1∆) |
| --- | --- | --- | --- | --- |
| SSSIKSTGPTGAVSLNP [RRP4] | 3.24 ± 0.035 | 3.37 ± 0.048 | 3.231 ± 0.027 | 3.151 ± 0.031 |
| DVEENRSEFIESLLNWI [YJR042W/NUP85] | 3.19 ± 0.12 | 3.08 ± 0.085 | 3.35 ± 0.14 | 3.34 ± 0.069 |
| WDLSVEDALYLGKRSIL [PRE2] | 3.4 ± 0.06 | 3.34 ± 0.056 | 3.17 ± 0.064 | 3.39 ± 0.048 |
| TEDIRIRAQNFKSALAN [RRP6] | 2.35 ± 0.067 | 2.41 ± 0.091 | 2.56 ± 0.1 | 2.73 ± 0.053 |
| RFMRFLADRDEFIQDSA [ECM29] | 1.87 ± 0.052 | 1.23 ± 0.042 | 1.21 ± 0.094 | 2.26 ± 0.029 |
| FIRHVAKLNYKNLNPAS [ECM29] | 2.49 ± 0.15 | 1.16 ± 0.1 |  | 1.03 ± 0.076 |
| KIPLPEVHDLIGFITSG [POP1] |  | 1.66 ± 0.24 | 1.88 ± 0.18 | 1.91 ± 0.14 |
| HSFAVLLHERKLLNDLA [NUT1] | 2.68 ± 0.049 | 2.49 ± 0.057 | 2.46 ± 0.086 | 2.71 ± 0.036 |
| PANVLLVQSLNDMVLEL [NNF1] | 2.67 ± 0.18 | 2.68 ± 0.17 | 2.83 ± 0.13 | 2.94 ± 0.057 |
| KLAKNLQIGDVVERHLE [RPO31] | 3.25 ± 0.15 | 3.49 ± 0.12 | 3.31 ± 0.069 | 3.2 ± 0.12 |
| MSDHSLDKLNCAINSKS [RRP6] | 2.49 ± 0.057 | 2.8 ± 0.047 | 2.59 ± 0.051 | 2.83 ± 0.036 |
| ATSQYLKQDLKKISSFK [YGL172W/NUP49] | 2.9 ± 0.064 | 2.56 ± 0.064 | 3.04 ± 0.051 | 3.06 ± 0.042 |
| KPSFSFPGKPVDVQAPT [YOR098C/NUP1] | 2.72 ± 0.056 | 2.88 ± 0.094 | 3.12 ± 0.055 | 2.77 ± 0.068 |
| MKQLKFFKPLDYITEAV [SNU114] | 2.12 ± 0.043 | 2.05 ± 0.052 | 1.86 ± 0.082 | 1.92 ± 0.036 |
| AFQLADGIHYILNHIGQ [PRP8] | 2.71 ± 0.14 | 2.97 ± 0.16 | 2.71 ± 0.24 | 2.65 ± 0.14 |
| LIITRKAFKNNSSKYYI [SMC4] | 2.59 ± 0.083 | 2.98 ± 0.092 | 2.66 ± 0.068 | 2.69 ± 0.11 |
| LNSMEKDRISHEVVQDD [PCI8] | 2.61 ± 0.079 | 2.69 ± 0.061 | 3.01 ± 0.067 | 2.41 ± 0.12 |
| ENYDAKIELEKKEKWAR [YIL149C/MLP2] | 3.2 ± 0.08 | 3.2 ± 0.12 | 2.67 ± 0.12 | 3.12 ± 0.067 |
| RAGVSQVLNRYTYSSTL [RPB2] | 2.96 ± 0.044 | 2.9 ± 0.041 | 2.9 ± 0.038 | 2.76 ± 0.036 |
| KISEDPVKALNECIAST [SNF12] | 2.37 ± 0.17 | 2.86 ± 0.12 | 2.62 ± 0.068 | 2.82 ± 0.097 |
| QLAPSSVDPQSSSTQNV [DIS3] | 2.99 ± 0.084 | 3.21 ± 0.079 | 2.8 ± 0.081 | 2.63 ± 0.098 |
| ITLHPSFFGPRMKQYLK [RPB7] | 2.41 ± 0.12 | 2.47 ± 0.12 | 1.75 ± 0.21 | 2.02 ± 0.061 |
| LDLAGPLLAQLFKTLFK [RPB2] | 2.63 ± 0.038 | 1.25 ± 0.037 | 1.25 ± 0.078 | 1.18 ± 0.031 |
| LKFLYLLDAYSHIESDS [MED1] | 2.46 ± 0.091 | 2.44 ± 0.075 | 2.8 ± 0.061 | 2.64 ± 0.057 |
| TTLHGPGFQLPNRITLT [SRB8] | 2.9 ± 0.099 | 2.84 ± 0.1 | 2.74 ± 0.068 | 2.89 ± 0.061 |
| VSITDAPKIHILDPSTE [YMR129W/POM152] | 1.56 ± 0.055 | 1.95 ± 0.056 | 1.53 ± 0.061 | 1.54 ± 0.061 |
| FLKYYGAHKFLDTYLPE [SIR2] | 1.66 ± 0.06 | 1.77 ± 0.061 | 1.37 ± 0.1 | 1.67 ± 0.052 |
